Test results: the supplement of paper PMC9732359
± gives the uncertainty stated by the source.

Assay: protein stability index of a GFP-peptide fusion (yeast GPS) (PSI 1-4); higher = more stable; sorted into four equal gates, so the index is relative within each strain
In short: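 Sequencing reads from sorted gates were used to score each peptide. The library consisted of tiled 17-residue yeast protein peptides fused downstream of GFP on a Cherry-expressing plasmid, pooled and carried in yeast. Mid-log cultures in leucine-free medium were split into four equal gates by GFP/Cherry ratio, and each gate's plasmids were PCR-amplified and Illumina-sequenced. The protein stability index adds up, over all gates, the read frequency multiplied by the gate number.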

| Sequence | protein stability index (doa10∆) | protein stability index (pdr5∆) | protein stability index (san1∆) | protein stability index (ubr1∆) |
| --- | --- | --- | --- | --- |
| PNMSICIFGDAFDVDRA [RPL1A] | 2.78 ± 0.071 | 2.52 ± 0.072 | 1.78 ± 0.084 | 2.4 ± 0.089 |
| PNSERETDHANTENNDP [IRR1] | 2.69 ± 0.073 | 2.87 ± 0.052 | 2.73 ± 0.045 | 2.88 ± 0.044 |
| PNSERSGTPTLKKNIEP [YOR098C/NUP1] | 3.32 ± 0.14 | 3.26 ± 0.097 | 2.72 ± 0.24 | 3.07 ± 0.082 |
| PNSNKTHTEQNNPPKPQ [SNF2] | 2.78 ± 0.056 | 3.07 ± 0.083 | 3.06 ± 0.069 | 3.06 ± 0.052 |
| PPGLDALVKPETQFKLS [CDC53] | 2.82 ± 0.058 | 2.84 ± 0.055 | 3.07 ± 0.036 | 2.99 ± 0.046 |
| PPLLVYKWTQGINNLSE [PRP8] | 3.09 ± 0.12 | 3.11 ± 0.073 | 3.29 ± 0.076 | 3.25 ± 0.098 |
| PPPPPPPGYEIEELDNP [PRP8] | 2.87 ± 0.046 | 2.98 ± 0.04 | 3.04 ± 0.048 | 3.03 ± 0.033 |
| PPPYVKFFTQSNLEKLP [MED7] | 2.25 ± 0.036 | 2.29 ± 0.04 | 2.41 ± 0.049 | 2.49 ± 0.027 |
| PPTTSNLIIFLYKFNGW [YML103C/NUP188] | 1.76 ± 0.046 | 2.26 ± 0.045 | 2.32 ± 0.058 | 2.53 ± 0.051 |
| PQALRVLRLKPGRKYTT [RPL16A] | 2.97 ± 0.044 | 3.05 ± 0.046 | 3.13 ± 0.046 | 3.21 ± 0.05 |
| PQDLTFNAGSNPPSYQS [RPB7] | 2.96 ± 0.17 | 2.99 ± 0.11 | 3.1 ± 0.17 | 2.86 ± 0.096 |
| PQIVVPDAQNELPKFIL [DIS3] | 2.9 ± 0.049 | 3.09 ± 0.06 | 2.92 ± 0.043 | 2.98 ± 0.077 |
| PQLISDKFSPEDGLGPL [ARP7] | 2.84 ± 0.072 | 2.83 ± 0.067 | 2.6 ± 0.062 | 2.61 ± 0.055 |
| PQQPMVKTKTIELIDYD [RET1] | 2.89 ± 0.14 | 3.18 ± 0.2 | 2.94 ± 0.075 | 2.97 ± 0.058 |
| PQWKRHLEEYGYLIQVL [YCS4] | 2.27 ± 0.052 | 2.73 ± 0.057 | 2.02 ± 0.095 | 2.5 ± 0.047 |
| PRDVIKGKDFEITAKEV [FAS1] | 3.27 ± 0.095 | 3.41 ± 0.12 | 3.24 ± 0.07 | 3.36 ± 0.083 |
| PRFLNKQERSKQERLKE [PRP28] | 1.91 ± 0.091 | 2.53 ± 0.13 | 3.34 ± 0.11 | 2.13 ± 0.089 |
| PRLGSIDRNLKCQTCQE [RPO21] | 2.01 ± 0.099 | 1.7 ± 0.056 | 2.18 ± 0.12 | 2.67 ± 0.069 |
| PRLSHLSLTAVPSFLRP [GRR1] | 2.09 ± 0.042 | 1.93 ± 0.062 | 1.79 ± 0.074 | 2.18 ± 0.045 |
| PRMASVFENYVKKTGEN [CDC53] | 3.46 ± 0.11 | 3.4 ± 0.087 | 3.54 ± 0.065 | 3.47 ± 0.049 |

| Sequence | protein stability index (doa10∆) | protein stability index (pdr5∆) | protein stability index (san1∆) | protein stability index (ubr1∆) |
| --- | --- | --- | --- | --- |
| PRRDGERKRKSVRGAIV [RPS6A] | 3.16 ± 0.099 | 3.29 ± 0.075 | 3.33 ± 0.072 | 3.05 ± 0.087 |
| PRTLIGHRATVTDIAII [RPN14] | 3.24 ± 0.18 | 3.54 ± 0.2 | 3.29 ± 0.1 | 3.18 ± 0.094 |
| PSDMVIPDHLAELIPEL [SNF12] | 3.09 ± 0.08 | 3 ± 0.069 | 2.88 ± 0.11 | 2.79 ± 0.042 |
| PSEDVAAPKKTRKAVRP [RPL6B] | 2.74 ± 0.089 | 3.08 ± 0.1 | 2.93 ± 0.085 | 2.91 ± 0.073 |
| PSFTDEQWITIESQMRD [PRP8] | 2.44 ± 0.067 | 2.66 ± 0.064 | 2.8 ± 0.069 | 2.6 ± 0.053 |
| PSFTFGGSTTNNTTTTS [YOR098C/NUP1] | 3.04 ± 0.099 | 3.19 ± 0.091 | 3.08 ± 0.056 | 3.36 ± 0.073 |
| PSHEKLKESYSQKHNGR [CDC53] | 3.23 ± 0.13 | 3.13 ± 0.071 | 2.94 ± 0.047 | 3.04 ± 0.08 |
| PSHYPHPYEYEIDHQEY [RRP6] | 2.41 ± 0.055 | 2.58 ± 0.055 | 2.17 ± 0.078 | 2.27 ± 0.035 |
| PSKKRRRDFGAPANKRP [SMD1] | 2.57 ± 0.19 | 3.02 ± 0.1 | 3.16 ± 0.12 | 3.04 ± 0.09 |
| PSLRDRRERRLIFGTIA [RPT3] | 1.41 ± 0.08 | 2.04 ± 0.099 | 1.63 ± 0.079 | 1.85 ± 0.07 |
| PSQFGMLCTADTPEGEA [RET1] |  | 1.7 ± 0.23 | 2.58 ± 0.22 |  |
| PSQSEEQKGQMAKKEGT [MED4] | 3.21 ± 0.2 | 3 ± 0.22 | 3.07 ± 0.19 |  |
| PSRRERRREQTTYSVDD [ISW2] | 2.65 ± 0.26 | 3 ± 0.062 | 3.22 ± 0.17 | 2.35 ± 0.14 |
| PSTGGVKKPHRYKPGTV [HHT1] | 1.59 ± 0.065 | 1.62 ± 0.057 | 1.64 ± 0.097 | 1.81 ± 0.072 |
| PSTNKKLSISNAASQQP [GAL11] | 2.48 ± 0.084 | 2.8 ± 0.066 | 2.56 ± 0.072 | 2.74 ± 0.075 |
| PSYAERQSSDESDNYRL [YML031W/NDC1] | 2.62 ± 0.049 | 2.32 ± 0.043 | 2.75 ± 0.057 | 2.7 ± 0.036 |
| PTATPSPFRPLEKTSRI [YMR153W/NUP53] | 2.89 ± 0.1 | 2.51 ± 0.058 | 2.57 ± 0.11 | 2.81 ± 0.054 |
| PTGPKTAIDKNGNITYS [FAS2] | 2.9 ± 0.061 | 3.08 ± 0.057 | 3 ± 0.059 | 2.91 ± 0.057 |
| PTKAAQRARDQDSIDIS [GAL11] | 3.21 ± 0.094 | 3.16 ± 0.081 | 3.36 ± 0.077 | 3.22 ± 0.073 |
